The record followed here is article PMC5971433.

In experiment [1] the target is MtrAB (native, the MtrAB component of the MtrCAB complex) (Shewanella oneidensis MR-1). The experiment can be described thus: small-angle neutron scattering (SANS); co-purified native MtrCAB at 3.5 and 9.7 mg/ml in 20 mM HEPES pH 7.8, 100 mM NaCl, 2.8 mM Fos-choline-12, 13% D2O (detergent contrast-matched); molecular mass from I(0), ab initio envelope.
In experiment [2] the target is MtrCAB porin–cytochrome complex (Shewanella oneidensis MR-1).

For orientation: stoichiometry N means a count of units in the complex or per binding partner.

In experiment [1], “MtrC (native, from the MtrCAB complex) (natural protein)” gave a stoichiometry N of 1. In experiment [2], “small tetraheme cytochrome (STC) (natural protein)” showed a rate of electron transfer from STC internalised in MtrCAB proteoliposomes to external Fe(III) citrate (absorbance at 550 nm) (nM electrons s^-1) of 61 and a rate of electron transfer from external sodium dithionite to STC internalised in MtrCAB proteoliposomes (absorbance at 550 nm) (nM electrons s^-1) of 140.
